{"source": "paper PMC9781609", "about": "(Pharmaceutics, 2022)", "key": {"[1]": {"details": "endogenous peptide; cited from earlier work", "method": "Neurotensin receptor imaging has emerged as a promising target for imaging and therapy. The endogenous neurotensin peptide has a short half-life in blood (<6 min), limiting its direct radiolabeling and use. Most developments in neurotensin receptor imaging have been focused on increasing serum stability and improving specificity for NTSR1 [1]. Previously, neurotensin receptor binding peptides have been investigated as imaging and therapeutic agents when radiolabeled with technetium-99m, indium-111, gallium-68, copper-64, actinium-225, and leutetium-177 [10, 11, 12, 13]. Specif ..."}, "in vivo": {"assay": "in vivo", "details": "male, athymic nude, mouse, total radioactivity", "method": "All animal procedures were approved by the University of Alabama at Birmingham IACUC, animal protocol number IACUC-22618. Male athymic nude mice (Charles River, Wilmington, MA, USA) were allowed to acclimate for at least 72 h before any procedures were performed. For tumor implantation, mice were subcutaneously injected with 300,000 HT29 cells 3 weeks before imaging. […] Mice were imaged on a GNEXT microPET/CT (Sophie, Springfield, VA, USA). After the last imaging timepoint, mice were euthanized and organs were taken for biodistribution. Organ weights and radioactive counting were collected on a Hidex gamma counter (Lablogic, Clair-Mel City, FL, USA). Images were processed and SUVs were calculated using VivoQuant software (Invicro, Boston, MA, USA)."}}}
{"compound": "neurotensin peptide: 13-amino-acid peptide which binds to neurotensin receptors 1–3", "values": [{"measurement": "half-life in blood", "setting": "[1]", "result": "< 6", "unit": "min"}]}
{"compound": "CC(=O)N[C@@H](CCCCNC(=O)CN1CCN(CC(=O)O)CCN(CC(=O)O)CC1)C(=O)N1CCC[C@H]1C(=O)N(C)[C@@H](CCCNC(=N)N)C(=O)N[C@@H](CCCNC(=N)N)C(=O)N1CCC[C@H]1C(=O)N[C@@H](Cc1ccc(O)cc1)C(=O)N[C@H](C(=O)N[C@@H](CC(C)C)C(=O)O)C(C)(C)C", "note": "[[^64Cu] Cu-NOTA-NT-20.3, metal not drawn]", "values": [{"measurement": "SUV at 1 h", "setting": "in vivo; liver SUV", "result": "0.123 ± 0.029", "unit": "SUV"}, {"measurement": "SUV at 4 h", "setting": "in vivo; liver SUV", "result": "0.178 ± 0.042", "unit": "SUV"}, {"measurement": "SUV at 24 h", "setting": "in vivo; liver SUV", "result": "0.168 ± 0.056", "unit": "SUV"}]}
{"compound": "CC(=O)N[C@@H](CCCCNC(=O)CN1CCN(CC(=O)O)CCN(CC(=O)O)CC1)C(=O)N1CCC[C@H]1C(=O)N(C)[C@@H](CCCNC(=N)N)C(=O)N[C@@H](CCCNC(=N)N)C(=O)N1CCC[C@H]1C(=O)N[C@@H](Cc1ccc(O)cc1)C(=O)N[C@H](C(=O)N[C@@H](CC(C)C)C(=O)O)C(C)(C)C", "note": "[[^55Co] Co-NOTA-NT-20.3]", "values": [{"measurement": "SUV at 1 h", "setting": "in vivo; 1 ug, heart SUV", "result": "0.033 ± 0.002", "unit": "SUV"}, {"measurement": "SUV at 4 h", "setting": "in vivo; 1 ug, heart SUV", "result": "0.015 ± 0.002", "unit": "SUV"}, {"measurement": "SUV at 24 h", "setting": "in vivo; 1 ug, heart SUV", "result": "0.004 ± 0.001", "unit": "SUV"}]}
